The values below are quoted from earlier work in PMC3039444.

The target in this series is Ube2g2 (Homo sapiens) (UniProt P60604).
Sequence of UniProt P60604 (P60604 2-165): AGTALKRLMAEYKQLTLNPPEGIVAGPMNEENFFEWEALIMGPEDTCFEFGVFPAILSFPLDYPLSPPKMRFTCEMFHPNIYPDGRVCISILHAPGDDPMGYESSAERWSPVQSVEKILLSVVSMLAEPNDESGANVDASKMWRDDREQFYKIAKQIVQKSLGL

Turning to gp78 G2BR (from UniProt Q9UKV5), the Kd is 21 nM.

By Kd is commonly meant the constant that tells how readily two partners part at equilibrium.
